This test concerns the target T1, Strep lyspersin (subunit of recombinant BORCΔBLOC-1) (UniProt Q96GS4 1-357).
T1 sequence: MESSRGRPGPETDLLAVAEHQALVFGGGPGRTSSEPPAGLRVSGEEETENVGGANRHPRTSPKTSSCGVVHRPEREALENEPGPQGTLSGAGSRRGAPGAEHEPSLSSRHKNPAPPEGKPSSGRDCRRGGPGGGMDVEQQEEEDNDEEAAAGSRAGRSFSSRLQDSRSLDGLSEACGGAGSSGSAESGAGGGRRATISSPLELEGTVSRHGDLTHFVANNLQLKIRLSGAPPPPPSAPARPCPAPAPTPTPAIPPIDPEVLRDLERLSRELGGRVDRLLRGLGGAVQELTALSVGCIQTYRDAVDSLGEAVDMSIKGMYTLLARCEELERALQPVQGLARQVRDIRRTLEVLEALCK
In words: cross-linking.

B1: KxDL1 (subunit of recombinant BORCΔBLOC-1) (natural protein)
chain: MDLPDSASRVFCGRILSMVNTDDVNAIILAQKNMLDRFEKTNEMLLNFNNLSSARLQQMSERFLHHTRTLVEMKRDLDSIFRRIRTLKGKLARQHPEAFSHIPEASFLEEEDEDPIPPSTTTTIATSEQSTGSCDTSPDTVSPSLSPGFEDLSHVQPGSPAINGRSQTDDEEMTGE
In the case of B1, the binding result is reported as “binds”.

These data come from article PMC5716276 (The Journal of Cell Biology, 2017).
